Data: the supplement of paper PMC10567573

B1: SNX8 (parent)
chain: LHQETQLIHVYLPLTSHILRAFVN
B2: WSB1 (parent)
chain: FSHDGLHVASLADDKMVRFWRIDE

Variants of: B1
Test: protein stability index of a GFP-peptide fusion (GPS, HEK-293T) (PSI 1-6); higher = more stable
Settings: c terminus: a fixed tail appended
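Also: lentivirally expressed fusions sorted by FACS into six bins by GFP to DsRed ratio, PSI derived from sequencing read proportions per bin multiplied by bin number.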

Compared with LHQETQLIHVYLPLTSHILRAFVT, LHQETQLIHVYLPLTSHILRAFVY is higher in protein stability index: 2.16 for the first, 2.88 for the second.

Compared with LHQETQLIHVYLPLTSHILRAFVH, LHQETQLIHVYLPLTSHILRAFVS is lower in protein stability index: 5.51 for the first, 2.59 for the second.

First: LHQETQLIHVYLPLTSHILRAFVK
Second: LHQETQLIHVYLPLTSHILRAFVQ
The protein stability index of the first is lower: 2.06 for the first, 2.93 for the second.

Going from LHQETQLIHVYLPLTSHILRAFVD to LHQETQLIHVYLPLTSHILRAFVA, the protein stability index falls from 2.94 to 2.76.

First: LHQETQLIHVYLPLTSHILRAFVF
Second: LHQETQLIHVYLPLTSHILRAFVV
The protein stability index of the first is lower: 3.69 for the first, 3.76 for the second.

Compared with LHQETQLIHVYLPLTSHILRAFVL, LHQETQLIHVYLPLTSHILRAFIN is lower in protein stability index: 2.37 for the first, 1.96 for the second.

First: LHQETQLIHVYLPLTSHILRAFLN
Second: LHQETQLIHVYLPLTSHILRAFSN
The protein stability index of the first is higher: 2.22 for the first, 2 for the second.

First: LHQETQLIHVYLPLTSHILRAFFN
Second: LHQETQLIHVYLPLTSHILRAFAN
The protein stability index of the first is lower: 2.14 for the first, 3.31 for the second.

Going from LHQETQLIHVYLPLTSHILRAFPN to LHQETQLIHVYLPLTSHILRAFWN, the protein stability index rises from 2.03 to 3.24.

Going from LHQETQLIHVYLPLTSHILRAFEN to LHQETQLIHVYLPLTSHILRAFMN, the protein stability index falls from 2.79 to 2.4.

Compared with LHQETQLIHVYLPLTSHILRAFYN, LHQETQLIHVYLPLTSHILRAFQN is lower in protein stability index: 3.02 for the first, 2.27 for the second.

Going from LHQETQLIHVYLPLTSHILRAFTN to LHQETQLIHVYLPLTSHILRAFHN, the protein stability index falls from 3.16 to 2.58.

First: LHQETQLIHVYLPLTSHILRAFDN
Second: LHQETQLIHVYLPLTSHILRAQVN
The protein stability index of the first is lower: 2.39 for the first, 2.57 for the second.

Going from LHQETQLIHVYLPLTSHILRAYVN to LHQETQLIHVYLPLTSHILRAKVN, the protein stability index falls from 4.5 to 2.21.

Compared with LHQETQLIHVYLPLTSHILRAMVN, LHQETQLIHVYLPLTSHILRAGVN is higher in protein stability index: 1.52 for the first, 2.88 for the second.

Going from LHQETQLIHVYLPLTSHILRAIVN to LHQETQLIHVYLPLTSHILRASVN, the protein stability index rises from 1.79 to 2.14.

Going from LHQETQLIHVYLPLTSHILRARVN to LHQETQLIHVYLPLTSHILRANVN, the protein stability index falls from 2.4 to 1.92.

Compared with LHQETQLIHVYLPLTSHILRAHVN, LHQETQLIHVYLPLTSHILRAPVN is higher in protein stability index: 1.96 for the first, 3.46 for the second.

Compared with LHQETQLIHVYLPLTSHILRALVN, LHQETQLIHVYLPLTSHILRAVVN is higher in protein stability index: 2.39 for the first, 2.75 for the second.

Going from LHQETQLIHVYLPLTSHILRACVN to LHQETQLIHVYLPLTSHILRADVN, the protein stability index falls from 3.79 to 2.12.

First: LHQETQLIHVYLPLTSHILMAFVN
Second: LHQETQLIHVYLPLTSHILDAFVN
The protein stability index of the first is higher: 3.04 for the first, 1.93 for the second.

First: LHQETQLIHVYLPLTSHILVAFVN
Second: LHQETQLIHVYLPLTSHILPAFVN
The protein stability index of the first is lower: 1.72 for the first, 3 for the second.

Going from LHQETQLIHVYLPLTSHILIAFVN to LHQETQLIHVYLPLTSHILNAFVN, the protein stability index rises from 2.9 to 3.03.

Going from LHQETQLIHVYLPLTSHILQAFVN to LHQETQLIHVYLPLTSHILHAFVN, the protein stability index rises from 1.89 to 2.95.

Compared with LHQETQLIHVYLPLTSHILLAFVN, LHQETQLIHVYLPLTSHILTAFVN is lower in protein stability index: 3.82 for the first, 1.72 for the second.

Going from LHQETQLIHVYLPLTSHILGAFVN to LHQETQLIHVYLPLTSHILYAFVN, the protein stability index falls from 3.27 to 3.11.

Compared with LHQETQLIHVYLPLTSHILRTFVN, LHQETQLIHVYLPLTSHILRIFVN is higher in protein stability index: 1.84 for the first, 3.77 for the second.

First: LHQETQLIHVYLPLTSHILRPFVN
Second: LHQETQLIHVYLPLTSHILRWFVN
The protein stability index of the first is higher: 2.84 for the first, 2.18 for the second.

Going from LHQETQLIHVYLPLTSHILRYFVN to LHQETQLIHVYLPLTSHILREFVN, the protein stability index rises from 2.35 to 2.48.

Going from LHQETQLIHVYLPLTSHILRCFVN to LHQETQLIHVYLPLTSHILRFFVN, the protein stability index falls from 2.73 to 1.38.

First: LHQETQLIHVYLPLTSHILRQFVN
Second: LHQETQLIHVYLPLTSHILRMFVN
The protein stability index of the first is lower: 2.01 for the first, 3.49 for the second.

Compared with LHQETQLIHVYLPLTSHILRRFVN, LHQETQLIHVYLPLTSHILRNFVN is higher in protein stability index: 2.63 for the first, 3.01 for the second.

Compared with LHQETQLIHVYLPLTSHILRDFVN, LHQETQLIHVYLPLTSHILRKFVN is lower in protein stability index: 2.8 for the first, 2.03 for the second.

Variants of: B2
Test: as above
Settings: c terminus: a fixed tail appended

First: FEHDGLHVASLADDKMVRFWRIDE
Second: FGHDGLHVASLADDKMVRFWRIDE
The protein stability index of the first is higher: 2.34 for the first, 1.15 for the second.

Compared with FMHDGLHVASLADDKMVRFWRIDE, FDHDGLHVASLADDKMVRFWRIDE is higher in protein stability index: 3.12 for the first, 3.79 for the second.

Compared with FNHDGLHVASLADDKMVRFWRIDE, FIHDGLHVASLADDKMVRFWRIDE is lower in protein stability index: 2.78 for the first, 2.46 for the second.

First: FLHDGLHVASLADDKMVRFWRIDE
Second: FFHDGLHVASLADDKMVRFWRIDE
The protein stability index of the first is lower: 1.58 for the first, 1.97 for the second.

Going from FRHDGLHVASLADDKMVRFWRIDE to FPHDGLHVASLADDKMVRFWRIDE, the protein stability index falls from 2.61 to 1.69.

Going from FVHDGLHVASLADDKMVRFWRIDE to GSHDGLHVASLADDKMVRFWRIDE, the protein stability index rises from 2.64 to 3.43.

Going from CSHDGLHVASLADDKMVRFWRIDE to LSHDGLHVASLADDKMVRFWRIDE, the protein stability index rises from 2.99 to 3.14.

Going from PSHDGLHVASLADDKMVRFWRIDE to YSHDGLHVASLADDKMVRFWRIDE, the protein stability index falls from 3.52 to 2.49.

Compared with ASHDGLHVASLADDKMVRFWRIDE, WSHDGLHVASLADDKMVRFWRIDE is lower in protein stability index: 2.85 for the first, 2.3 for the second.

First: KSHDGLHVASLADDKMVRFWRIDE
Second: SSHDGLHVASLADDKMVRFWRIDE
The protein stability index of the first is higher: 3.4 for the first, 3.33 for the second.

Compared with QSHDGLHVASLADDKMVRFWRIDE, ESHDGLHVASLADDKMVRFWRIDE is higher in protein stability index: 3.9 for the first, 4.03 for the second.

Compared with NSHDGLHVASLADDKMVRFWRIDE, DSHDGLHVASLADDKMVRFWRIDE is higher in protein stability index: 3.25 for the first, 4.46 for the second.

Compared with TSHDGLHVASLADDKMVRFWRIDE, MSHDGLHVASLADDKMVRFWRIDE is higher in protein stability index: 3.73 for the first, 3.81 for the second.

First: HSHDGLHVASLADDKMVRFWRIDE
Second: ISHDGLHVASLADDKMVRFWRIDE
The protein stability index of the first is higher: 3.01 for the first, 2.89 for the second.
